“Also recorded” adds a separate entry of the source. Where a name gives a salt, the structure may show the parent alone. Where a SMILES comes first, the peptide text is derived from it. [ ]: non-standard residue; d: D form. The star is where a group is joined. Dolaproine = CO[C@@H]([C@@H]1CCCN1)[C@@H](C)C(=O)O; Dil = CC[C@H](C)[C@H](NC)[C@@H](CC(=O)O)OC; X1 = C[C@@H](N*)[C@@H](O)c1ccccc1; NMeV = CN[C@H](C(=O)O)C(C)C
Tests used:
GPNMB = molecular target: T1, GPNMB (Homo sapiens, UniProt Q14956); experiment: Binning of antibodies (Luminex competitive binding)
T1 construct: made in house; host or cells: HEK 293
T1 sequence (Q14956 23-492): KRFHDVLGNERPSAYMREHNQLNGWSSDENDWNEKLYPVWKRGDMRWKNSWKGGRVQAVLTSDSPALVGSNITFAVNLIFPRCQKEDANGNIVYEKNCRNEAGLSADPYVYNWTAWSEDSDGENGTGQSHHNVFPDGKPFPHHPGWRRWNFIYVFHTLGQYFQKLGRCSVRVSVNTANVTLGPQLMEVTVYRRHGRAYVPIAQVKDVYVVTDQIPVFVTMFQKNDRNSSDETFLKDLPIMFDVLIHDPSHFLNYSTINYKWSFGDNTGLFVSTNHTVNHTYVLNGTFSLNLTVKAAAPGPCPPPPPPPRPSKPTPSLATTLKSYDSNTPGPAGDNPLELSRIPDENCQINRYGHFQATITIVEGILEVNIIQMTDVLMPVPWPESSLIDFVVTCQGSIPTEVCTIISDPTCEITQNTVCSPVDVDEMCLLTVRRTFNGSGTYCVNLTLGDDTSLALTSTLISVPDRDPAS
Description: Certain antibodies, described herein were binned in accordance with the protocol described in U.S. Patent Application Publication No. 20030157730. MxhIgG conjugated beads are prepared for coupling to primary antibody. The volume of supernatant needed is calculated using the following formula: (n+10)×50 μL (where n=total number of samples on plate). Where the concentration is known, 0.5 μg/mL is used. Bead stock is gently vortexed, then diluted in supernatant to a concentration of 2500 of each bead per well or 0.5×10^5/mL and incubated on a shaker in the dark at RT overnight, or 2 hours if at a known concentration of […]. Following aspiration, 50 μL of each bead is added to each well of filter plate, then washed once by adding 100 μL/well wash buffer and aspirating. Antigen and controls are added to filter plate 50 μL/well then covered and allowed to incubate in the dark for 1 hour on shaker. Following a wash step, a secondary unknown antibody is added at 50 μL/well using the same dilution (or concentration if known) as is used for the primary antibody. The plates are then incubated in the dark for 2 hours at RT on shaker followed by a wash step. Next, 50 μL/well biotinylated mxhIgG diluted 1:500 is added and allowed to incubate in the dark for 1 hour on shaker at RT. Following a wash step, 50 μL/well Streptavidin-PE is added at 1:1000 and allowed to incubate in the dark for 15 minutes on shaker at RT.

UACC-62 = experiment: Anti GPNMB antibody mediated indirect cell killing (saporin secondary antibody-toxin conjugate, colony count); assay type: cell-based, human; conditions: 5-FU at 600 uM, positive reagent control
Description: UACC-62, a GPNMB antigen expressing cell line, and TK10, a non-expressing cell line were plated onto flat bottom 96-well tissue culture plates (Becton Dickinson, Franklin Lakes, N.J., USA) at a density of 3000 cells per well. Once the cells reached ˜25% confluency, 100 ng/well of secondary antibody-toxin conjugate (goat anti-human IgG-saporin; Advanced Targeting Systems, San Diego, USA, HUM-ZAP; cat. # IT-22) was added. Anti-GPNMB MAbs 2.10.2, 2.22.1, 1.15.1 or isotype control mAb (pK16.3) were added to each well at a final concentration of 10 or 50 ng/mL. An anti-EGFR monoclonal antibody (MS-269-PABX, NeoMarkers, Fremont, Calif., USA) was used as a positive primary antibody control. Chemotherapy reagent 5-FU at 600 uM was used as a positive reagent control. On day 5, the cells were trypsinized, transferred to 6-well tissue culture plates and incubated at 37° C. Plates were examined daily and between 8-10 days, all plates were Giemsa stained and colonies were counted.

[1] = tested on: SK-MEL-2 melanoma xenografts; experiment: Human SK-MEL-2 melanoma xenograft in athymic mice; assay type: in vivo
Description: (§1) Test Animals: Five- to 6-week old athymic mice (CD-1 nu/nu females), used for human tumor xenografts, were obtained from Harlan Laboratories (Indianapolis, Ind.). Animals were housed in specific pathogen-free conditions, according to the guidelines of the Association for Assessment and Accreditation of Laboratory Animal Care International (AAALAC International). Test animals were provided pelleted food and water ad libitum and kept in a room with conditioned ventilation (HVAC), temperature (22°±2° C.), relative humidity (55%±15%), and photoperiod (12 hr). All studies were carried out with approved institutional animal care and use protocols.
(§2) Human Melanoma Xenograft Models. The tumor inhibitory activity of the CR011-MMAE immunoconjugate was measured in an anti-tumor xenograft model using athymic mice, according to published methods (see Geran et al., Cancer Chemother. Rep. 3:1-104 (1972)). […] When tumors became established (10-20 days), the animals were pair-matched into groups (n=6 mice/group), and treatment was administered by intravenous injection (tail vein).
(§3) The SK-MEL-2 human melanoma (ATCC #HTB-68) was derived from a metastatic site (skin of thigh) of a person with malignant melanoma, and the SK-MEL-5 human melanoma (ATCC #HTB-70) was derived from a metastatic site (axillary lymph node) of a person with malignant melanoma (see Fogh et al., J. Natl. Cancer Inst. 59: 221-226 (1977)). Both cell lines were obtained from the American Type Culture Collection.
(§4) The effects of treatment were monitored by repetitive tumor measurements across 2 diameters with Vernier calipers; tumor size (in mg) was calculated using a standard formula, (W^2×L)/2, assuming a specific gravity of 1.0. Tumor size and body weights were assessed twice weekly. Mice were examined daily, however, and moribund animals were humanely euthanized if clinical indications of excessive pain or distress were noted (i.e., prostration, hunched posture, paralysis/paresis, distended abdomen, ulcerations, abscesses, seizures, and/or hemorrhages). Animals with tumors exceeding 2,000 mg were removed from the study and euthanized humanely.
No apparent or statistically significant anti-tumor effects were observed. […] In preliminary studies, tumor regression was complete and was not followed by regrowth of the tumor despite lengthy observation periods (up to 200 days).

[2] = tested on: SK-MEL-5 melanoma xenografts; experiment: Human SK-MEL-5 melanoma xenograft in athymic mice; assay type: in vivo
Description: as §1, §2, §3, §4
Soon after the commencement of treatment with paclitaxel, however, significant tumor growth inhibition was observed (P≦0.039) at day 3 after treatment began, and this anti-tumor effect continued, producing 100% growth inhibition (stasis). The responses of SK-MEL-5-bearing test animals to vinblastine and paclitaxel were short-lived. After cessation of treatment at the maximally tolerated doses, tumors resumed rapid, progressive growth.

SK-Mel-2 cells [3] = experiment: ADCC assay with human PBMC (DELFIA EuTDA cytotoxicity); assay type: cell-based; conditions: human PBMC 30 to 100 fold; 2, 5, 10 μg/200 μl
Description: We next examined whether the CR0111gG1 mAb could induce ADCC in SK-MEL-2 cells in culture in the presence of human PBMC. Human PBMC were isolated from whole blood using a Ficoll-Plaque. Briefly, in a 50 mL tube, 15 mL of PBS was added to 20 mL of whole blood which was underlayed with 10 mL Ficoll-Plaque and the tube was centrifuged at 2000 RPM. Mononuclear cells were collected from the interface and washed 3 times with PBS. The ADCC assay was carried out in a 96 well plate using a fluorescence assay for cytolysis from Perkin-Elmer (DELFIA EuTDA Cytotoxic assay). The procedure is based on loading target cells with a fluorescence enhancing ligand (BATDA, bis (acetoxymethyl) terpyridine—dicarboxylate). The hydrophic ligand penetrates the membrane quickly. Within the cell the esterbonds are hydrolyzed to form a hydrophilic ligand (TDA, terpyridine—dicarboxylic acid) which can no longer pass through the membrane. After cytolysis the ligand is released and introduced to the Europium solution. The europium and the ligand form a highly fluorescent and stable chelate (EuTDA). Fluorescence intensity are recorded using excitation and emission wavelengths as λex=340 nm and λem=613 nm, respectively.

SK-Mel-2 cells [4] = experiment: Flow cytometry of CR011 binding to cell surface CG56972/GPNMB; set-up: species or system human; conditions: SK-MEL-2
Description: Flow Cytometry: Quantitative analysis of GPNMB expression on the cell surface of cell lines was determined by flow cytometry. […] Cells were fixed in 1% paraformaldehyde/PBS and examined on a Becton Dickinson FACSCalibur flow cytometer. Data analysis was performed with Becton Dickinson Cell Quest software version 3.3 and the geometric mean fluorescence intensity ratio (GMR) was determined for each cell type.
Flow Cytometry: Quantitative analysis of CG56972 expression on the surface of cell lines was determined by flow cytometry (FACS). […] Cells were fixed in 1% paraformaldehyde/PBS and examined on a Becton Dickinson FACSCalibur flow cytometer. Data analysis was performed with Becton Dickinson Cell Quest software version 3.3 and the geometric mean fluorescence intensity ratio (GMR) was determined for each cell type.

“1.15: anti-GPNMB antibody 1.15 of the binning tables; line of the lead mAb 1.15 / CR011” was tested, and the bin (GPNMB; bin assignment of Table 8) was “VIII”, the bin (GPNMB; bin assignment of Table 9, Cut-off = 90) was “VIII” and the “binning signal (Table 8)” value (GPNMB; paired with 1.1) was 91. The “binning signal (Table 8)” value (GPNMB; paired with 1.11) was 10, the “binning signal (Table 9)” value (GPNMB; paired with 1.11) was 19 and the “binning signal (Table 8)” value (GPNMB; paired with 1.12) was 15. The “binning signal (Table 9)” value (GPNMB; paired with 1.12) was 21, the “binning signal (Table 8)” value (GPNMB; paired with 1.13) was 13 and the “binning signal (Table 9)” value (GPNMB; paired with 1.13) was 5. For the same molecule, the “binning signal (Table 8)” value (GPNMB; paired with 1.15) was 0, the “binning signal (Table 9)” value (GPNMB; paired with 1.15) was 0 and the “binning signal (Table 8)” value (GPNMB; paired with 1.2) was 79. For the same molecule, the “binning signal (Table 9)” value (GPNMB; paired with 1.2) was 90, the “binning signal (Table 8)” value (GPNMB; paired with 1.3) was 71 and the “binning signal (Table 9)” value (GPNMB; paired with 1.3) was 51. For the same molecule, the “binning signal (Table 8)” value (GPNMB; paired with 1.5) was 15, the “binning signal (Table 9)” value (GPNMB; paired with 1.5) was −9 and the “binning signal (Table 8)” value (GPNMB; paired with 1.7) was 21. The “binning signal (Table 9)” value (GPNMB; paired with 1.7) was 17, the “binning signal (Table 8)” value (GPNMB; paired with 1.8) was 8 and the “binning signal (Table 9)” value (GPNMB; paired with 1.8) was 12. For the same molecule, the “binning signal (Table 8)” value (GPNMB; paired with 1.9) was 12, the “binning signal (Table 9)” value (GPNMB; paired with 1.9) was 19 and the “binning signal (Table 8)” value (GPNMB; paired with BB) was −19. For the same molecule, the “binning signal (Table 9)” value (GPNMB; paired with BB) was 59 and the “binning signal (Table 8)” value (GPNMB; paired with xV5) was 89.

In the case of `O=c1[nH]cc(F)c(=O)[nH]1` [Mab 5-FU, 5-FU], the killing of cells (UACC-62) is reported as “complete killing”.

For `CC[C@H](C)[C@@H]([C@@H](CC(=O)N1CCC[C@H]1[C@H](OC)[C@@H](C)C(=O)N[C@H](C)[C@@H](O)c1ccccc1)OC)N(C)C(=O)[C@@H](NC(=O)[C@@H](NC)C(C)C)C(C)C` [free monomethylauristatin E, monomethylauristatin E, reference compound] (H-[NMeV]V[Dil][Dolaproine]-X1), the tumor response ([1]; CR011-ONC-1, CR011-vcMMAE 5 mg/kg/treatment i.v. q4d x4, components at doses identical to those in the immunoconjugate) was “lack of responses; also recorded: lack of tumor growth inhibition”.

`CC(=O)O[C@H]1C(=O)[C@@]2(C)[C@H]([C@H](OC(=O)c3ccccc3)[C@]3(O)C[C@H](OC(=O)[C@H](O)[C@@H](NC(=O)c4ccccc4)c4ccccc4)C(C)=C1C3(C)C)[C@]1(OC(C)=O)CO[C@@H]1C[C@@H]2O` [paclitaxel, reference compound] was tested, and the “long-term, tumor-free survivors” value ([2]; paclitaxel group) was “One long-term, tumor-free survivor”.

In the case of `CC[C@]1(O)C[C@@H]2CN(CCc3c([nH]c4ccccc34)[C@@](C(=O)OC)(c3cc4c(cc3OC)N(C)[C@H]3[C@@](O)(C(=O)OC)[C@H](OC(C)=O)[C@]5(CC)C=CCN6CC[C@]43[C@@H]65)C2)C1` [vinblastine, vinblastine sulfate, reference compound], the anti-tumor effect ([2]; CR011-ONC-3, i.v., vs saline and PBS control groups) is reported as “noticeable, but not significant tumor growth inhibition” and the anti-tumor effect ([1]; Study N-386, i.v., CR011-vcMMAE 20, 10, 5 or 2.5 mg/kg q4d x4, vinblastine […] q4d x4) is reported as “very slight, but not significant, anti-tumor effect”.

In the case of “CR011 IgG1: CR011 mAb 1.15.1 switched to IgG1 constant region; heavy chain SEQ ID NO: 395”, the “ADCC / cytolysis of SK-MEL-2 cells” value (SK-Mel-2 cells [3]) is reported as “mediated ADCC; also recorded: caused cytolysis of SK-MEL-2 cells in a dose dependent manner” and the “FACS shifts compared to isotype control mAbs” value (SK-Mel-2 cells [4]) is reported as “comparable FACS shifts”.

Reference: patent US8846873B2, “Antibodies directed to GPNMB and uses thereof” (Celldex Therapeutics, Inc., priority 2004, dated 2014)
